According to US9109237B2, “Method of preparing piceatannol using bacterial cytochrome P450 and composition therefor” (priority 2008, dated 2015):

T1: human CYP1A2 (Homo sapiens, UniProt P05177)
T1 sequence (P05177 1-516): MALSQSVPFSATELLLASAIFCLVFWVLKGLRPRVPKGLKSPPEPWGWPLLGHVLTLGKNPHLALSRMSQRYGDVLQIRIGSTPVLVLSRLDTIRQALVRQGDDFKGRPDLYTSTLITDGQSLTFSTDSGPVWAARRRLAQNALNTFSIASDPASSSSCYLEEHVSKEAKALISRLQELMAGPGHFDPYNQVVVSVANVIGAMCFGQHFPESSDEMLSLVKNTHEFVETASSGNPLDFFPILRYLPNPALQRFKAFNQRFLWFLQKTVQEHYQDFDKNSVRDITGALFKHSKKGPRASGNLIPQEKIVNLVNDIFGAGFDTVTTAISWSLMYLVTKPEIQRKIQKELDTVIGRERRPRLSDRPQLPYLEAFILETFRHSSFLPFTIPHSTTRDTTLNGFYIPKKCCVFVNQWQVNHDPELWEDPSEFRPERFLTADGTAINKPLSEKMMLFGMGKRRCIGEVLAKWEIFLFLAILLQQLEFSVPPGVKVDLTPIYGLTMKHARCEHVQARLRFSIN

B1: human CYP1A2: Human cytochrome P450 1A2, prepared as disclosed by Kim et al. (2008c); comparison enzyme (protein, UniProt P05177 2-516, looked up)
Cytochrome P450 1A2: ALSQSVPFSATELLLASAIFCLVFWVLKGLRPRVPKGLKSPPEPWGWPLLGHVLTLGKNPHLALSRMSQRYGDVLQIRIGSTPVLVLSRLDTIRQALVRQGDDFKGRPDLYTSTLITDGQSLTFSTDSGPVWAARRRLAQNALNTFSIASDPASSSSCYLEEHVSKEAKALISRLQELMAGPGHFDPYNQVVVSVANVIGAMCFGQHFPESSDEMLSLVKNTHEFVETASSGNPLDFFPILRYLPNPALQRFKAFNQRFLWFLQKTVQEHYQDFDKNSVRDITGALFKHSKKGPRASGNLIPQEKIVNLVNDIFGAGFDTVTTAISWSLMYLVTKPEIQRKIQKELDTVIGRERRPRLSDRPQLPYLEAFILETFRHSSFLPFTIPHSTTRDTTLNGFYIPKKCCVFVNQWQVNHDPELWEDPSEFRPERFLTADGTAINKPLSEKMMLFGMGKRRCIGEVLAKWEIFLFLAILLQQLEFSVPPGVKVDLTPIYGLTMKHARCEHVQARLRFSIN
B2: WT: BM3 wild type; bacterial cytochrome P450 BM3 (CYP102A1) from Bacillus megaterium, SEQ ID NO:16 (protein, listed as Bacillus megaterium)
chain: TIKEMPQPKTFGELKNLPLLNTDKPVQALMKIADELGEIFKFEAPGRVTRYLSSQRLIKEACDESRFDKNLSQALKFVRDFAGDGLFTSWTHEKNWKKAHNILLPSFSQQAMKGYHAMMVDIAVQLVQKWERLNADEHIEVPEDMTRLTLDTIGLCGFNYRFNSFYRDQPHPFITSMVRALDEAMNKLQRANPDDPAYDENKRQFQEDIKVMNDLVDKIIADRKASGEQSDDLLTHMLNGKDPETGEPLDDENIRYQIITFLIAGHETTSGLLSFALYFLVKNPHVLQKAAEEAARVLVDPVPSYKQVKQLKYVGMVLNEALRLWPTAPAFSLYAKEDTVLGGEYPLEKGDELMVLIPQLHRDKTIWGDDVEEFRPERFENPSAIPQHAFKPFGNGQRACIGQQFALHEATLVLGMMLKHFDFEDHTNYELDIKETLTLKPEGFVVKAKSKKIPLGGIPSPSTEQSAKKVRKKAENAHNTPLLVLYGSNMGTAEGTARDLADIAMSKGFAPQVATLDSHAGNLPREGAVLIVTASYNGHPPDNAKQFVDWLDQASADEVKGVRYSVFGCGDKNWATTYQKVPAFIDETLAAKGAENIADRGEADASDDFEGTYEEWREHMWSDVAAYFNLDIENSEDNKSTLSLQFVDSAADMPLAKMHGAFSTNVVASKELQQPGSARSTRHLEIELPKEASYQEGDHLGVIPRNYEGIVNRVTARFGLDASQQIRLEAEEEKLAHLPLAKTVSVEELLQYVELQDPVTRTQLRAMAAKTVCPPHKVELEALLEKQAYKEQVLAKRLTMLELLEKYPACEMKFSEFIALLPSIRPRYYSISSSPRVDEKQASITVSVVSGEAWSGYGEYKGIASNYLAELQEGDTITCFISTPQSEFTLPKDPETPLIMVGPGTGVAPFRGFVQARKQLKEQGQSLGEAHLYFGCRSPHEDYLYQEELENAQSEGIITLHTAFSRMPNQPKTYVQHVMEQDGKKLIELLDQGAHFYICGDGSQMAPAVEATLMKSYADVHQVSEADARLWLQQLEEKGRYAKDVWAG

Tests used:
human CYP1A2 = target: T1, human CYP1A2; settings: cited from earlier work
[1] = Resveratrol metabolite profile by HPLC and GC-MS; format: biochemical; settings: HPLC, UV 320 nm
Protocol: (§1) Oxidation of trans-resveratrol, a substrate of human CYP1A2, by CYP102A1 was identified. Typical steady-state reactions for trans-resveratrol hydroxylation included 50 pmol P450 BM3 in 0.25 ml of a 100 mM potassium phosphate buffer (pH 7.4) were performed along with a specified amount of a substrate. To determine the kinetic parameter of several CYP102A1 mutants, 2 to 100 μM of trans-resveratrol was used. An NADPH-generating system was used to initiate reaction solutions (final concentrations: 10 mM glucose 6-phosphate, 0.5 mM NADP+, and 1 IU yeast glucose 6-phosphate per ml). Trans-resveratrol stocks (20 mM) were prepared in DMSO and diluted into the enzyme reactions with the final organic solvent concentration <1% (v/v). Reactions were generally incubated for 10 min at 37° C., and terminated with 105 μl of ice-cold acetic acid/methanol (95/5, v/v).
After centrifugation of the reaction mixture, the supernatant was analyzed by HPLC (Piver et al. 2004). Samples (30 μl) were injected into a Gemini C18 column (4.6 mm×150 mm, 5 μm, Phenomenex, Torrance, Calif.). The mobile phase A was water containing 87 mM of 0.5% acetic acid/acetonitrile (95/5, v/v); whereas the mobile phase B was acetonitrile/0.5% acetic acid (95/5, v/v). […] Eluates were detected by UV rays at 320 nm. […]

[2] = Kinetic parameters of piceatannol formation (3'-hydroxylation of resveratrol); format: biochemical
Protocol: as §1, with “Reactions were generally incubated for 10 min at 37° C., and terminated with 105 μl of ice-cold acetic acid/methanol (95/5, v/v).” left out
After centrifugation of the reaction mixture, the supernatant was analyzed by HPLC (Piver et al. 2004). […] Eluates were detected by UV rays at 320 nm.
Kinetic parameters (Km and kcat) were determined using nonlinear regression analysis with GraphPad PRISM software (GraphPad, San Diego, Calif., USA). The data were analyzed using the standard Michaelis-Menten equation: v=kcat[E][S]/([S]+Km), where the velocity of the reaction is a function of the rate-limiting step in turnover (kcat), the enzyme concentration ([E]), substrate concentration ([S]), and the Michaelis constant (Km).

[3] = Rates of piceatannol formation (trans-resveratrol hydroxylation) at fixed substrate concentration, HPLC; format: biochemical; settings: fixed substrate concentration 100 μM trans-resveratrol
Protocol: as §1
After centrifugation of the reaction mixture, the supernatant was analyzed by HPLC (Piver et al. 2004). Samples (30 μl) were injected into a Gemini C18 column (4.6 mm×150 mm, 5 μm, Phenomenex, Torrance, Calif.). […] Eluates were detected by UV rays at 320 nm.
The ability of wild-type P450 BM3 and mutants of P450 BM3 to oxidize trans-resveratrol was measured at a fixed substance concentration (100 μM).

Molecule | Inhibition of human CYP1A2 (in words) (human CYP1A2) | Metabolites produced on oxidation of resveratrol [1] | Kinetic parameters, result in words [2] | Rate of piceatannol formation [3]
Oc1ccc(C=Cc2cc(O)cc(O)c2)cc1 [Resveratrol, 3,4′,5-trihydroxystilbene] | substrate and inhibitor | – | – | –
Oc1cc(O)cc(C=Cc2ccc(O)c(O)c2)c1 [Piceatannol, 3,5,3′,4′-tetrahydroxystilbene] | potent inhibitor | – | – | –
B1 | – | two major metabolites: piceatannol and other hydroxylated products | kinetic parameters could not be obtained | –
B2 | – | only one major metabolite | – | 0.22 ± 0.01 nmol product/min/nmol P450
